{
  "source": "paper doi:10.1101/2020.09.25.312835",
  "about": "(bioRxiv, 2020)",
  "target": "the molecule itself",
  "test": "cross-linking",
  "data": [
    {"protein": "C-terminal fragment of bovine ROS-GC1 comprising the αHD and CD (aa 814-1110) (domain or fragment, UniProt P55203 814-1110, looked up) NKGRKMNIIDSMLRMLEQYSSNLEDLIRERTEELELEKQKTDRLLTQMLPPSVAEALKMGTPVEPEYFEEVTLYFSDIVGFTTISAMSEPIEVVDLLNDLYTLFDAIIGSHDVYKVETIGDAYMVASGLPQRNGHRHAAEIANMALDILSAVGTFRMRHMPEVPVRIRIGLHSGPCVAGVVGLTMPRYCLFGDTVNTASAMESTGLPYRIHVNRSTVQILSALNEGFLTEVRGRTELKGKGAEETYWLVGRRGFNKPIPKPPDLQPGASNHGISLHEIPPDRRQKLEKARPGQFSGK", "values": [
      {"measurement": "binding result", "result": "binds"}
    ]}
  ]
}
